Four molecules from patent US20230399397A1 (EWHA UNIVERSITY INDUSTRY COLLABORATION FOUNDATION, published 2023) can be followed below.

For test [1], the target named is T1, mouse OSCAR-Fc (fusion of ectodomain of mouse-derived OSCAR protein and Fc domain of human immunoglobulin … (mouse)).
T1 construct: also called mOSCAR-Fc; mOSCAR
The experiment in a line: ELISA, periplasm extract of the scFv clone on coated mOSCAR-Fc. The procedure:
(§1) To select anti-OSCAR antibodies via ELISA screening, first, 200 μL of SB-carbenicillin was added to each well of a 96-well microplate, and E. coli colonies obtained in the third and fourth panning processes were added thereto, followed by incubation at 37° C. for 2 hours while stirring. Using a plate replication pin tool, the cultured clones were transferred to a new microplate, IPTG was added to each well in which E. coli was cultured to a final concentration of 1 mM, followed by incubation […] while stirring. Then, the microplate was centrifuged and the supernatant discarded, and then precipitated E. coli was suspended in 40 μL of ice-cold 1× TES (20% sucrose, 50 mM Tris, 1 mM EDTA, pH 8.0) per well. Then, […] was added to each well, mixed well, and left on ice for 30 minutes, followed by centrifugation of the microplate to obtain a periplasm extract.
(§2) Subsequently, 25 μL of human and mouse OSCAR-Fc and human IgG each diluted in PBS to a concentration of 2 μg/mL were added to each well of a 96-well plate for ELISA and left to stand at 37° C. for 1 hour such that an antigen was adsorbed onto the surface of the well. […] Once a blue color was clearly developed, reaction was terminated by adding 25 μL of 1 N aqueous sulfuric acid solution to each well, and a color change signal was measured using absorbance at a wavelength of 450 nm. […]
A general note: In an ELISA, binding on a coated surface is turned into a signal by an enzyme label.

Test [2] addresses T2, human OSCAR-Fc (fusion of ectodomain of human-derived OSCAR protein and Fc domain of human immunoglobulin … (human)).
T2 construct: also called hOSCAR-Fc; hOSCAR
The experiment in a line: ELISA, periplasm extract of the scFv clone on coated hOSCAR-Fc. The protocol:
as §1, §2

Test [3] addresses T2, human OSCAR-Fc (fusion of ectodomain of …). The experiment in a line: competitive ELISA, IgG premixed with OSCAR-Fc, on coated collagen. The protocol: (§3) Specifically, 25 μL of collagen (collagen type I from rat tail) diluted with PBS to a concentration of 2 μg/mL was added to an ELISA plate and adsorbed onto the ELISA plate by leaving to stand at 4° C. overnight. The surface onto which collagen was not adsorbed was protected by using a 3% milk powder solution. Subsequently, the purified anti-OSCAR IgG antibody and human or mouse OSCAR-Fc [fusion of ectodomain of human and mouse-derived OSCAR protein and Fc domain of human immunoglobulin gamma 1 (human IgG1)][human-derived: hOSCAR-Fc (SEQ ID NO: 4) and mouse-derived: mOSCAR-Fc (SEQ ID NO: 5)] were mixed to have concentrations of 2 μg/mL and 1 μg/mL, respectively, for 1.5 hours to bind to each other. Then, the mixture was added to the collagen-adsorbed ELISA plate from which the powdered milk solution was removed in an amount of […] and left to stand at room temperature for 1.5 hours. Subsequently, the plate was washed three times with PBST to remove unreacted antibodies and OSCAR-Fc, and 25 μL of an HRP-conjugated anti-human IgG antibody diluted at 1:3,000 was added to each well and left to stand at room temperature for 1 hour to detect OSCAR-Fc bound to collagen. […] Absorbance was measured at 450 nm to analyze the degree of OSCAR-collagen binding (FIG. 2).

Test [4] has as its target T1, mouse OSCAR-Fc (fusion of ectodomain of …). Described as above. The protocol: as §3
Test [5] concerns the target T2, human OSCAR-Fc (fusion of ectodomain of …). The experiment in a line: BLI (Octet); BLI (Octet); mother clone D11. The procedure:
Therefore, based on intensities of the ELISA signals, expression levels, stability, and activity of the clones whose affinity was matured from the clone D11, D11-B9 was selected, and relative affinity thereof to OSCAR was re-evaluated by way of serial dilution. […] To measure a dissociation constant more accurately, analysis was performed by measuring bio-layer interferometry (BLI) signals using an Octet device. […] In the same manner as in the serial dilution ELISA, the clone D11 seems to have a lower affinity to hOSCAR. A dissociation constant was about 5.6 nM, and a lower response signal was measured (FIG. 10).
In general terms: BLI is a label-free optical method that tracks binding on a fibre tip over time.

Test [6] shares this target. The experiment in a line: bio-layer interferometry (Octet), antibody as ligand on the sensor, hOSCAR as analyte.
Test [7] concerns the target T1, mouse OSCAR-Fc (fusion of ectodomain of …). The experiment in a line: bio-layer interferometry (Octet), antibody as ligand on the sensor, mOSCAR as analyte.
Test [8] has as its target T2, human OSCAR-Fc (fusion of ectodomain of …). The experiment in a line: serial dilution ELISA, 4-parameter logistic curve fit.
Test [9] has as its target T1, mouse OSCAR-Fc (fusion of ectodomain of …). The experiment in a line: BLI (Octet); BLI (Octet); mOSCAR.
Test [10] concerns the target T2, human OSCAR-Fc (fusion of ectodomain of …). The experiment in a line: BLI (Octet).
The target in test [11] is T1, mouse OSCAR-Fc (fusion of ectodomain of …). The experiment in a line: BLI (Octet).
For test [12] the target is unchanged. The experiment in a line: serial dilution ELISA (re-evaluation); re-evaluation by serial dilution (FIG. 10); mOSCAR.
The target in test [13] is T2, human OSCAR-Fc (fusion of ectodomain of …). The experiment in a line: serial dilution ELISA, 4-parameter logistic curve fit; first serial dilution ELISA of the IgG clones (FIG. 9). The protocol:
Next, the EC₅₀ values of the clones were calculated using a 4-parameter logistic curve fit from serial dilution ELISA.

Test [14] has the same target. The experiment in a line: serial dilution ELISA (re-evaluation); re-evaluation by serial dilution (FIG. 10); hOSCAR.
The target is the same in test [15]. The experiment in a line: BLI (Octet); BLI (Octet); hOSCAR.

In general, Kd refers to the constant that tells how readily two partners part at equilibrium. Broadly, the EC50 is the concentration needed to bring the measured effect to its halfway point. A lower EC50 goes with greater potency.

B1: anti-OSCAR scFv B4 (scFv, V domains shown)
VH: EVQLLESGGGLVQPGGSLRLSCAASGFTFSDYAMSWVRQAPGKGLEWVSGIYHGGGNIYYADSVKGRFTISRDNSKNTLYLQMNSLRAEDTAVYYCARAPDEFDYWGQGTLVTVSS
VL: QSVLTQPPSASGTPGQRVTISCSGSSSNIGNNSVTWYQQLPGTAPKLLIYYNSHRPSGVPDRFSGSKPGTSASLAISGLRSEDEADYYCGAWDSSLNGYVFGGGTKLTVL
notes: Single-chain Fv; Tested as periplasm extract
In the case of B1, the binding result in test [1] and in [2] was “binds” each time.

B2: anti-OSCAR antibody B4 (IgG) (antibody, V domains shown)
VH: EVQLLESGGGLVQPGGSLRLSCAASGFTFSDYAMSWVRQAPGKGLEWVSGIYHGGGNIYYADSVKGRFTISRDNSKNTLYLQMNSLRAEDTAVYYCARAPDEFDYWGQGTLVTVSS
VL: QSVLTQPPSASGTPGQRVTISCSGSSSNIGNNSVTWYQQLPGTAPKLLIYYNSHRPSGVPDRFSGSKPGTSASLAISGLRSEDEADYYCGAWDSSLNGYVFGGGTKLTVLG
notes: also called clone antibody B4
For B2, the binding result in [3] and in [4] was “binds” throughout.

B3: anti-OSCAR antibody D11 (IgG) (antibody, V domains shown)
VH: EVQLLESGGGLVQPGGSLRLSCAASGFTFSDYYWTWVRQAPGKGLEWVSGSPVFGAANYAQNFQGRFTISRDNSKNTLYLQMNSLRAEDTAVYYCAKAGFTGGHFDIWGQGTLVTVSS
VL: QSVLTQPPSASGTPGQRVTISCSGSSSNIGNNYVSWYQQLPGTAPKLLIYGNSNRPSGVPNRFSGSKSGTSASLAISGLRSEDEADYYCQSYDSSSWLFGGGTKLTVLG
notes: also called clone D11; mother-clone D11
Regarding B3, the Kd in test [5] was about 5.6 nM; in [6] it was 5.61 nM; in test [7] it was 2.87 nM. In test [8], this molecule gave an EC50 of 520 nM.

B4: anti-OSCAR antibody D11-B9 (IgG) (antibody, V domains shown)
VH: EVQLLESGGGLVQPGGSLRLSCAASGFTFSDYYWTWVRQAPGKGLEWVSGSPVFGAANYAQNFQGRFTISRDNSKNTLYLQMNSLRAEDTAVYYCAKAGIPGHFDIWGQGTLVTVSS
VL: QSVLTQPPSASGTPGQRVTISCSGSSSNIGNNYVSWYQQLPGTAPKLLIYGNSNRPSGVPNRFSGSKSGTSASLAISGLRSEDEADYYCQSYDSSSWLFGGGTKLTVLG
notes: also called clone D11-B9; D11-69 (misprint in the text)
As for B4, the dissociation constant (Kd) is 0.2 nM in test [9], 0.4 nM in test [15], 0.41 nM in test [6] and 0.222 nM in test [7]. The “fold affinity against clone D11” value in [10] was 10 times; in test [11], at least 10 times. For the same molecule, the values for the EC50 in test [12], in [13] and in [14] were 36.8 nM, 1.5 nM and 36.8 nM, respectively.
